This note sets out measurements from US20240218074A1 (AKESO BIOPHARMA, published 2024).

A word on the EC50: it is the concentration at which the effect is half-maximal. High values mean lower potency in that assay, low ones higher potency in that assay.

Assay [1] concerns the target T1, human CD73 expressed on cells (human PBMC CD8+ T cells and CD19+ B cells); endogenous CD73 of MDA-MB-231 and … (human, UniProt P21589 27-549).
T1 construct: whole, on cells; also called NT5E; ecto-5'-nucleotidase
T1 sequence (looked up): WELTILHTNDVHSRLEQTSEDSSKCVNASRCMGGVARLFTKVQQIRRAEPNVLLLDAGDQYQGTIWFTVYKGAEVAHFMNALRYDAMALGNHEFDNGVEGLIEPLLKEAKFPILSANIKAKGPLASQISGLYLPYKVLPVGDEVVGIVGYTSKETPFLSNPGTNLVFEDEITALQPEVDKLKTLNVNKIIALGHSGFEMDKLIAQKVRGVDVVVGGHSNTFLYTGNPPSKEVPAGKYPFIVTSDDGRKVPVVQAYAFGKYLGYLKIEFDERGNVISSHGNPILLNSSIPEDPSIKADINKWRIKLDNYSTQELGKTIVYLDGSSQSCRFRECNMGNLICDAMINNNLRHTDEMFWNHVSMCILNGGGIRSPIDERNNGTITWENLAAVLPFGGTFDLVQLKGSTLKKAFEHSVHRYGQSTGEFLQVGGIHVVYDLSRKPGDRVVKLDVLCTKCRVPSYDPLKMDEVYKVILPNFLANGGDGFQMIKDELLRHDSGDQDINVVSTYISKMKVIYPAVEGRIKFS
As to the kind of experiment: FACS on human PBMC, binding to CD19+ B cells. Here is the method:
(§1) The experimental steps are as follows: The PBMCs were resuscitated, centrifuged at 1,200 rpm for 5 min, and the supernatant was discarded, resuspended in complete medium, counted, and incubated overnight at 37° C. The solution was centrifuged at 1,200 rpm for 5 min, cells were harvested, diluted antibody solution was added at 100 μL/well, mixed well, and incubated in a refrigerator at 4° C. for 1 hour. The solution was centrifuged at 750×g for 5 min, the supernatant was discarded, and washed 2 times with 200 μL of 1×PBS (containing 1% BSA and 0.05% NaN3). Anti-human CD3-FITC (2 μL/100 μL), anti-human CD19-PE (2 μL/100 μL) (Biolegend, article number: 302254), anti-human CD8-PerCP Cy5.5 (1 μL/100 μL), anti-human IgG Fc-AF647 (1:300) (Southern Biotech, catalog number: 9040-31) were added, and incubated at 4° C. for 30 minutes. The solution was centrifuged at 750×g for 5 min, the supernatant was discarded, washed once with 200 μL of 1×PBS (including 1% BSA and 0.05% NaN3); resuspended with 300 μL of 1×PBS (including 1% BSA and 0.05% NaN3), transferred to flow tubes, and loaded for testing.

Assay [2] addresses T1, human CD73 expressed on cells (human …). Nature of the assay: cell-based or functional assay.
The target is the same in assay [3]. As to the kind of experiment: FACS on human PBMC, binding to CD8+ T cells. Here is the method:
as §1

Assay [4] deals with T2, human NT5E-Biotin (NT5E is GenbankID: NP_002517.1, position: 1-552) (human, UniProt P21589 27-552, biotin label (site not stated)).
T2 construct: range 1-552; Recombinant soluble antigen made by Akeso (batch 20160505), biotinylated and captured on streptavidin; also called HNT5E-Biotin; human NT5E (1-552)-Biotin
T2 sequence (looked up): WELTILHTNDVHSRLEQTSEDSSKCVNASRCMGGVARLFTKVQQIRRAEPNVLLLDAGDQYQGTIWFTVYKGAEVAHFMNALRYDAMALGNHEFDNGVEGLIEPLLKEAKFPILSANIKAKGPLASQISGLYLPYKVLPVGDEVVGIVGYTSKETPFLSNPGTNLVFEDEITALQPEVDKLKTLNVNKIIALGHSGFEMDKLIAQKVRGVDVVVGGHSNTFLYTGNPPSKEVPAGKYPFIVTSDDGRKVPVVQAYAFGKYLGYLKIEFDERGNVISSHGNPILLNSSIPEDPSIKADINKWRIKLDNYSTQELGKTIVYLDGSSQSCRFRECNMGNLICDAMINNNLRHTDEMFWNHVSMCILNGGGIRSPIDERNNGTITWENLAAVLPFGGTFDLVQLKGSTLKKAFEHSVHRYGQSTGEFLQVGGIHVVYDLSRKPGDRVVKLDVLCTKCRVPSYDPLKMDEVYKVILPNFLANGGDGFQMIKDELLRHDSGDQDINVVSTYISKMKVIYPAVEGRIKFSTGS
As to the kind of experiment: ELISA on streptavidin-captured human NT5E-Biotin; HRP goat anti-mouse IgG. In general terms: An ELISA detects its analyte on a solid surface through an enzyme-linked reagent.

B1: control antibody CPI-006 (Mupadolimab) (antibody, human IgG1, kappa, N297Q, V domains shown)
VH: QVQLVQSGAEVEKPGASVKVSCKASGYTFTSYWITWVRQAPGQGLEWMGDIYPGSGNTNYNEKFKTRVTITADKSTSTAYMELSSLRSEDTAVYYCAKEGGLTTEDYALDYWGQGTLVTVSS
VL: EIVLTQSPATLSLSPGERATLSCRASKNVSTSGYSYMHWYQQKPGQAPRLLIYLASNLESGIPPRFSGSGYGTDFTLTINNIESEDAAYYFCQHSRELPFTFGQGTKVEIKR
notes: made by Akeso
Take B1: the 50% effective concentration (EC50) is 0.108 nM in assay [1] and 0.288 nM in assay [3]. For the same molecule, in assay [2], the “Inhibition rate EC50 (nM): enzyme activity of CD73 expressed by human PBMC membrane (AMP/ATP CellTiter-Glo read-out)” value stood at 0.226 nM.

B2: murine anti-CD73 monoclonal antibody 19F3 (antibody, V domains shown)
VH: EVQLQQSGPELVKPGASMRMSCKASGYSFTGYTMNWVKQSHGKNLEWIGLINPYNAGTSYNQKFKGKATLTVDKSSSTAYMELLSLTSEDSAVYYCARSEYRYGGDYFDYWGQGTTLTVSS
VL: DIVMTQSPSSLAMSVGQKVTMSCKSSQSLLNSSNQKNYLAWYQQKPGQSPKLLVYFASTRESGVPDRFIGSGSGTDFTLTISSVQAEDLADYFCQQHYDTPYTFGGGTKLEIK
notes: Mouse hybridoma antibody purified on protein A; also called murine antibody 19F3; Murine 19F3
As for B2, a half-maximal effect in assay [4] (EC50) was put at 0.018 nM.
